Measured values from US20210309746A1 (COMPASS THERAPEUTICS, published 2021).

The binders below were run against human BTN3A1 ectopically expressed on K32 cells (human, UniProt O00481 30-513) (assay: cell-based or functional assay).
Chain of human BTN3A1 ectopically expressed on K32 cells (O00481 30-513 limits assumed): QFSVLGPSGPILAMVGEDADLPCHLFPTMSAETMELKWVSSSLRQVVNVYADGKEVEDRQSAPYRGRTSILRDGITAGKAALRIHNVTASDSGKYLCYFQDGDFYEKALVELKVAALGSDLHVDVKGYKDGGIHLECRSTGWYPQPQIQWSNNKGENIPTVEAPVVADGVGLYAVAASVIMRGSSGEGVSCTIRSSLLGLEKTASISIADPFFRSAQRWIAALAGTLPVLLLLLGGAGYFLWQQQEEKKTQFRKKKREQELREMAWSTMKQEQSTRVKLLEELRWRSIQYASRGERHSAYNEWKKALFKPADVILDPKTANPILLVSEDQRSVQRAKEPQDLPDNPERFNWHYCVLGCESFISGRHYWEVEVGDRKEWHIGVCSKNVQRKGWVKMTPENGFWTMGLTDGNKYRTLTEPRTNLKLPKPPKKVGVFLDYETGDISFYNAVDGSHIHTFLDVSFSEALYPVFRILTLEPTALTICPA

Row | IFN-γ release by purified CD4+ T cells stimulated with BTN-K32 cells | IFN-γ release by purified CD8+ T cells stimulated with BTN-K32 cells | proliferation of gated CD4+ T cells within total PBMCs co-cultured with anti-CD3/anti-CD28 coated BTN-K32 cells | proliferation of gated CD8+ T cells within total PBMCs co-cultured with anti-CD3/anti-CD28 coated BTN-K32 cells | proliferation of purified CD4+ T cells stimulated with BTN-K32 cells | proliferation of purified CD8+ T cells stimulated with BTN-K32 cells | Binder
1 | ≥ 2 fold | ~1300 fold | ≥ 1.5 fold | ≥ 1.5 fold | ≥ 1.5 fold | ≥ 2 fold | anti-CD277 monoclonal antibody mAb1 (antibody, V domains shown) VH: not shown VL: DIQMTQSPSSVSASVGDRVTITCRASQGISSWLAWYQQKPGKAPKLLIYAASSLQSGVPSRFSGSGSGTDFTLTISSLQPEDFATYYCQQATDFPPTFGGGTKVEIKR

Each binder was assayed against T1, human CD277 (human, UniProt O00481 30-254, limits assumed) (assay: SPRi (Carterra MX96), antibody printed on chip, his-tagged antigen injected, 1:1 fit).
T1 construct: The SPR method text speaks of 'purified recombinant his tagged human CD137', apparently an error for CD277; also called BTN3A1; human CD277 polypeptides
T1 sequence (O00481 30-254 limits assumed): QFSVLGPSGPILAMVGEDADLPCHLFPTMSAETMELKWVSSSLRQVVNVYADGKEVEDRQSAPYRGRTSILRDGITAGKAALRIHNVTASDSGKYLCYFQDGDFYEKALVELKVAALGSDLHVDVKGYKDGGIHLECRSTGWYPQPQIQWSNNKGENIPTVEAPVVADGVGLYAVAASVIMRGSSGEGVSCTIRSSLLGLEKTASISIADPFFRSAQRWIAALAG
Description: The resulting anti-CD277 antibodies from different selection rounds were plotted on kd/kₐ double log plots. Apparent association and dissociation kinetic rate constants (kₐ and kd values) were determined on an SPRi reader (MX96, Carterra) in a running buffer of PBS-C 0.01%. […] antibodies were covalently printed on a Carboxymethyldextran hydrogel 50 L chip (Xantec bioanalytics) on a CFM (Carterra). Freshly mixed activating reagents ([…] 0.4 M EDC and […] 0.1 M sulfo-NHS in H2O) were used to activate the surface of the SPR substrate for 7 minutes. Antibodies at 10 mg/ml in acetic acid buffer pH 4.5 were used for printing for 15 minutes. The printed chip was then quenched on SPRi reader (MX96, Carterra) with 1 M ethanolamine for 15 minutes. For kinetics analysis, purified recombinant his tagged human […] (0, 2.05, 5.12, 12.8, 32, 80, 200, 500 nM) was injected sequentially. For each concentration, there was 5 minutes of association followed by 10 minutes of dissociation. Data were processed and analyzed in SPR Inspection Tool and Scrubber softwares. The kinetic data were referenced with the interstitial reference spots and double-referenced to a buffer cycle, and then fit globally to a 1:1 binding model to determine their apparent association and dissociation kinetic rate constants (kₐ and kd values). The ratio kd/kₐ was used to derive the KD value of each antigen/mAb interaction, i.e. KD=kd/kₐ.

Row | Kd | koff | kon | Binder
2 | 16.7 nM | 0.000384 s⁻¹ | 23000 M⁻¹ s⁻¹ | anti-CD277 monoclonal antibody mAb1 (antibody, V domains shown) VH: not shown VL: DIQMTQSPSSVSASVGDRVTITCRASQGISSWLAWYQQKPGKAPKLLIYAASSLQSGVPSRFSGSGSGTDFTLTISSLQPEDFATYYCQQATDFPPTFGGGTKVEIKR
3 | 5.13 nM | 9.36e-05 s⁻¹ | 18200 M⁻¹ s⁻¹ | anti-CD277 antibody mAb11 (antibody, human IgG1, kappa, N297A, V domains shown) VH: QVQLVQSGAEVKKPGASVKVSCKASGYTFSNYYIHWVRQAPGQGLEWMGWINANSGGTKYAQKFQGRVTMTRDTSISTAYMELSRLRSDDTAVYYCARRHSDMIGYYYGMDVWGQGTTVTVSS VL: DIQMTQSPSSLSASVGDRVTITCRASQSISSYLNWYQQKPGKAPKLLIYAASSLQSGVPSRFSGSGSGTDFTLTISSLQPEDFATYYCQQANTFPPTFGQGTRLEIKR
4 | 6.71 nM | 0.000121 s⁻¹ | 18100 M⁻¹ s⁻¹ | anti-CD277 antibody mAb3 (antibody, human IgG1, kappa, N297A, V domains shown) VH: QVQLVQSGAEVKKPGASVKVSCKASGYTFNGYYIHWVRQAPGQGLEWMGWINSNSGGTKYAQKFQGRVTMTRDTSISTAYMELSRLRSDDTAVYYCARRHSDMIGYYYGMDVWGQGTTVTVSS VL: DIQMTQSPSSVSASVGDRVTITCRASQGISSWLAWYQQKPGKAPKLLIYAASSLQSGVPSRFSGSGSGTDFTLTISSLQPEDFATYYCQQATDFPPTFGGGTKVEIKR
5 | 10.1 nM | 0.00019 s⁻¹ | 18800 M⁻¹ s⁻¹ | anti-CD277 antibody mAb4 (antibody, human IgG1, kappa, N297A, V domains shown) VH: QVQLVQSGAEVKKPGASVKVSCKASGYTFTNYYMHWVRQAPGQGLEWMGWINVNSGVTKYAQKFQGRVTMTRDTSISTAYMELSRLRSDDTAVYYCARRHSDMIGYYYGMDVWGQGTTVTVSS VL: DIQMTQSPSSVSASVGDRVTITCRASQGISSWLAWYQQKPGKAPKLLIYAASSLQSGVPSRFSGSGSGTDFTLTISSLQPEDFATYYCQQATDFPPTFGGGTKVEIKR
6 | 4.69 nM | 8.03e-05 s⁻¹ | 17100 M⁻¹ s⁻¹ | anti-CD277 antibody mAb10 (antibody, human IgG1, kappa, N297A, V domains shown) VH: QVQLVQSGAEVKKPGASVKVSCKASGYTFTNYYMHWVRQAPGQGLEWMGWINVNSGVTKYAQKFQGRVTMTRDTSISTAYMELSRLRSDDTAVYYCARRHSDMIGYYYGMDVWGQGTTVTVSS VL: DIQMTQSPSSLSASVGDRVTITCRASQSISSYLNWYQQKPGKAPKLLIYAASSLQSGVPSRFSGSGSGTDFTLTISSLQPEDFATYYCQQANTFPPTFGQGTRLEIKR
7 | 4.37 nM | 0.000118 s⁻¹ | 27100 M⁻¹ s⁻¹ | anti-CD277 antibody mAb6 (antibody, human IgG1, kappa, N297A, V domains shown) VH: not shown VL: DIQMTQSPSSLSASVGDRVTITCRASQSISLFLNWYQQKPGKAPKLLIYTASSLQSGVPSRFSGSGSGTDFTLTISSLQPEDFATYYCQQANSFPPTFGGGTKVDIKR
8 | 12.9 nM | 0.00025 s⁻¹ | 19300 M⁻¹ s⁻¹ | anti-CD277 antibody mAb5 (antibody, human IgG1, kappa, N297A, V domains shown) VH: QVQLVQSGAEVKKPGASVKVSCKASGYTFSNYYIHWVRQAPGQGLEWMGWINANSGGTKYAQKFQGRVTMTRDTSISTAYMELSRLRSDDTAVYYCARRHSDMIGYYYGMDVWGQGTTVTVSS VL: DIQMTQSPSSVSASVGDRVTITCRASQGISSWLAWYQQKPGKAPKLLIYAASSLQSGVPSRFSGSGSGTDFTLTISSLQPEDFATYYCQQATDFPPTFGGGTKVEIKR
9 | 6.05 nM | 0.000138 s⁻¹ | 22800 M⁻¹ s⁻¹ | anti-CD277 antibody mAb8 (antibody, human IgG1, kappa, N297A, V domains shown) VH: not shown VL: DIQMTQSPSSLSASVGDRVTITCRASQSIDRYLNWYQQKPGKAPKLLIYAASRLQSGVPSRFSGSGSGTDFTLTISSLQPEDFATYYCQQANSFPPTFGQGTRLEIKR
10 | 6.69 nM | 0.000159 s⁻¹ | 23700 M⁻¹ s⁻¹ | anti-CD277 antibody mAb7 (antibody, human IgG1, kappa, N297A, V domains shown) VH: not shown VL: DIQMTQSPSSLSASVGDRVTITCRASQDISVYLNWYQQKPGKAPKLLIYTASSLQSGVPSRFSGSGSGTDFTLTISSLQPEDFATYYCQQANSFPPTFGGGTKVDIKR
11 | 6.82 nM | 9.71e-05 s⁻¹ | 14200 M⁻¹ s⁻¹ | anti-CD277 antibody mAb9 (antibody, V domains shown) VH: QVQLVQSGAEVKKPGASVKVSCKASGYTFNGYYIHWVRQAPGQGLEWMGWINSNSGGTKYAQKFQGRVTMTRDTSISTAYMELSRLRSDDTAVYYCARRHSDMIGYYYGMDVWGQGTTVTVSS VL: DIQLTQSPSSLSASVGDRVTITCRASQSISSYLNWYQQKPGKVPKLLIYAASTLQSGVPSRFSGSGSGTDFTLTISSLQPEDFATYSCQQTNSFPPTFGQGTKVEIKR
12 | 2.68 nM | 4.89e-05 s⁻¹ | 18300 M⁻¹ s⁻¹ | anti-CD277 antibody mAb2 (antibody, human IgG1, kappa, N297A, V domains shown) VH: QVQLVQSGAEVKKPGASVKVSCKASGYTFSNYYIHWVRQAPGQGLEWMGWINANSGGTKYAQKFQGRVTMTRDTSISTAYMELSRLRSDDTAVYYCARRHSDMIGYYYGMDVWGQGTTVTVSS VL: DIQMTQSPSSLSASVGDRVTITCRASQSIDRYLNWYQQKPGKAPKLLIYAASRLQSGVPSRFSGSGSGTDFTLTISSLQPEDFATYYCQQANSFPPTFGQGTRLEIKR
